Measured values taken from the PETadex activity labels (doi:10.1002/cbic.201800097).

Legend:
[1] = substrate: PET; experiment: Proxy for plastic degradation [Released monomer concentration (HPLC/LC-MS) (TPA)]; conditions: pH 9
[2] = substrate: PET; experiment: Proxy for plastic degradation [Released monomer concentration (HPLC/LC-MS) (MHET)]; conditions: pH 9
[3] = substrate: BHET; experiment: Proxy for plastic degradation [Released monomer concentration (HPLC/LC-MS) (MHET+TPA)]; conditions: pH 7.5

Protein | Proxy for plastic degradation [1] | Proxy for plastic degradation [2] | Proxy for plastic degradation [3] | Proxy for plastic degradation ([1]; part of the chain shown) | Proxy for plastic degradation ([2]; part of the chain shown)
unnamed (protein) NPYARGPNPTAASLEASAGPFTVRSFTVSRPSGYGAGTVYYPTNAGGTVGAIAIVPGYTARQSSIKWWGPRLASHGFVVITIDTNSTLDQPSSRSSQQMAALRQVASLNGTSSSPIYGKVDTARMGVMGWSMGGGGSLISAANNPSLKAAAPQAPWDSSTNFSSVTVPTLIFACENDSIAPVNSSALPIYDSMSRNAKQFLEINGGSHSCAASGNSNQALIGKKGVAWMKRFMDNDTRYSTFACENPNSTRVSDFRTANCS | 0 nM | 1.5 nM |  |  | 
unnamed (protein) NPYARGPNPTAASLEASAGPFTVRSFTVSRPSGYGAGTVYYPTNAGGTVGAIAIVPGYTARQSSIKWLGPRLASHGFVVITIDTNSTLDQPSSRSSQQMAALRQVASLNGTSSSPIYGKVDTARMGVMGWSMGGGGSLISAANNPSLKAAAPQAPWDSSTNFSSVTVPTLIFACENDSIAPVNSSALPIYDSMSRNAKQFLEINGGSHSCANSGNSNQALIGKKGVAWMKRFMDNDTRYSTFACENPNSTRVSDFRTANCS | 0 nM | 0 nM | 0.18 µM |  | 
unnamed (protein) NPYARGPNPTAASLEASAGPFTVRSFTVSRPSGYGAGTVYYPTNAGGTVGAIAIVPGFTARQSSIKWWGPRLASHGFVVITIDTNSTLDQPSSRSSQQMAALRQVASLNGTSSSPIYGKVDTARMGVMGWSMGGGGSLISAANNPSLKAAAPQAPWDSSTNFSSVTVPTLIFACENDSIAPVNSSALPIYDSMSRNAKQFLEINGGSHSCANSGNSNQALIGKKGVAWMKRFMDNDTRYSTFACENPNSTRVSDFRTANCS | 0 nM | 0 nM | 0.54 µM |  | 
unnamed (protein) NPYARGPNPTAASLEASAGPFTVRSFTVSRPSGYGAGTVYYPTNAGGTVGAIAIVPGYTARQSSIKWWGPRLASHGFVVITIDTNSTLDQPSSRSSQQMAALRQVASLNGTSSSPIYGKVDTARMGVMGWAMGGGGSLISAANNPSLKAAAPQAPWDSSTNFSSVTVPTLIFACENASIAPVNSSALPIYDSMSRNAKQFLEINGGSASCANSGNSNQALIGKKGVAWMKRFMDNDTRYSTFACENPNSTRVSDFRTANCS | 0 nM | 0 nM |  |  | 
unnamed (protein) NPYARGPNPTAASLEASAGPFTVRSFTVSRPSGYGAGTVYYPTNAGGTVGAIAIVPGYTARQSSIKWWGPRLASHGFVVITIDTNSTLDAPSSRSSQQMAALRQVASLNGTSSSPIYGKVDTARMGVMGWSMGGGGSLISAANNPSLKAAAPQAPWDSSTNFSSVTVPTLIFACENDSIAPVNSSALPIYDSMSRNAKQFLEINGGSHSCANSGNSNQALIGKKGVAWMKRFMDNDTRYSTFACENPNSTRVSDFRTANCS | 6 nM |  | 0.94 µM |  | 
unnamed (protein) NPYARGPNPTAASLEASAGPFTVRSFTVSRPSGYGAGTVYYPTNAGGTVGAIAIVPGYTARQSSIKWWGPRLASHGFVVITIDTNSTLDQPSSRSSQQMAALRQVASLNGTSSSPIYGKVDTARMGVMGWSMGGGGSLISAANNPSLKAAAPQAPWDSSTNFSSVTVPTLIFAAENDSIAPVNSSALPIYDSMSRNAKQFLEINGGSHSAANSGNSNQALIGKKGVAWMKRFMDNDTRYSTFACENPNSTRVSDFRTANCS |  |  |  | 0 nM | 0.5 nM
unnamed (protein) NPYARGPNPTAASLEASAGPFTVRSFTVSRPSGYGAGTVYYPTNAGGTVGAIAIVPGYTARQSSIKWWGPRLASHGFVVITIDTNSTLDQPSSRSSQQMAALRQVASLNGTSSSPIYGKVDTARMGVMGWSMGGGGSLISAANNPSLKAAAPQAPADSSTNFSSVTVPTLIFACENDSIAPVNSSALPIYDSMSRNAKQFLEINGGSHSCANSGNSNQALIGKKGVAWMKRFMDNDTRYSTFACENPNSTRVSDFRTANCS | 2 nM | 1.5 nM |  |  | 
unnamed (protein) NPYARGPNPTAASLEASAGPFTVRSFTVSRPSGYGAGTVYYPTNAGGTVGAIAIVPGATARQSSIKWWGPRLASHGFVVITIDTNSTLDQPSSRSSQQMAALRQVASLNGTSSSPIYGKVDTARMGVMGWSMGGGGSLISAANNPSLKAAAPQAPWDSSTNFSSVTVPTLIFACENDSIAPVNSSALPIYDSMSRNAKQFLEINGGSHSCANSGNSNQALIGKKGVAWMKRFMDNDTRYSTFACENPNSTRVSDFRTANCS | 21 nM |  | 1.09 µM |  | 
unnamed (protein) NPYARGPNPTAASLEASAGPFTVRSFTVSRPSGYGAGTVYYPTNAGGTVGAIAIVPGYTARQSSIKWWGPRLASHGFVVITIDTNSTLDQPSSRSSQQMAALRQVASLNGTSSSPIYGKVDTARMGVMGWSMGGGGSLISAANNPSLKAAAPQAPWDSSTNFSSVTVPTLIFACENDSIAPVNSSALPIYDSMSRNAKQFLEINGGSHSAANSGNSNQALIGKKGVAWMKRFMDNDTRYSTFACENPNSTRVSDFRTANCS | 0 nM | 0 nM | 0.22 µM |  | 
unnamed (protein) NPYARGPNPTAASLEASAGPFTVRSFTVSRPSGYGAGTVYYPTNAGGTVGAIAIVPGYTARQSSIKWWGPRLASHGFVVITIDTNSTLDQPSSRSSQQMAALRQVASLNGTSSSPIYGKVDTARMGVMGWSMGGGGSLISAANNPSLKAAAPQAPWDSSTNFSSVTVPTLIFACENDSIIPVNSSALPIYDSMSRNAKQFLEINGGSHSCANSGNSNQALIGKKGVAWMKRFMDNDTRYSTFACENPNSTRVSDFRTANCS | 11 nM | 13 nM |  |  | 
